The source of these data is article PMC12487890.

For assay [1], the target named is interferon-induced transmembrane protein 3 (IFITM3), human, untagged (UniProt Q01628). Description: co-immunoprecipitation (anti-HA IP, anti-IFITM3 immunoblot), IFITM3/HA band ratio. Conditions: mean of two co-IPs from independent transfections.
Assay [2] shares this target. Nature of the assay: proximity ligation assay (anti-IFITM3 and anti-HA, confocal microscopy). As to conditions: HEK293T cells transfected with pCMV-IFITM3 (0.50 μg) and pBJ-97ZANef-HA WT or mutant (0.25 μg); mean of 6 to 12 cells per condition; parent: 20,209.
Where [3] appears, read: HEK293T cells cotransfected with pCMV-IFITM3 (0.50 μg) and pBJ-97ZA Nef-HA WT or mutant (0.25 μg), parent: 100.
The mark [4] stands for this setting: HEK293T cells cotransfected with pCMV-IFITM3 (0.50 μg) and pBJ-97ZANef-HA WT or mutant (0.25 μg).

Sequence of UniProt Q01628 (Q01628 whole entry): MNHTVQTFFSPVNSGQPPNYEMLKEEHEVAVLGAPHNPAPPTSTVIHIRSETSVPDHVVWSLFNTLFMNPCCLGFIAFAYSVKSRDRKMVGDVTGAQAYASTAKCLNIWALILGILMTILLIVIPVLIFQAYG

On to “97ZA013 Nef-HA, wild type (HIV-1 clade C primary isolate) E153K”, for which the percent of parent in assay [1] (setting [3]) was determined as 73%.
On to “97ZA013 Nef-HA, wild type (HIV-1 clade C primary isolate) G2A”, for which the response (corrected total cell fluorescence) in assay [2] came to 3000. Also, in assay [1] (setting [4]), the percent of parent is 1%.
For “97ZA013 Nef-HA, wild type (HIV-1 clade C primary isolate) L165A; L166A”, in that order: 12000 and 87%.
Regarding “97ZA013 Nef-HA, wild type (HIV-1 clade C primary isolate) M20A”, the response (corrected total cell fluorescence) in assay [2] is 17200. In addition, the percent of parent in assay [1] (setting [4]) came out at 124%.
In the case of “97ZA013 Nef-HA, wild type (HIV-1 clade C primary isolate) M169V; Q171L”, the percent of parent in assay [1] (setting [3]) was 244%.
Same read-out and setting: to “97ZA013 Nef-HA, wild type (HIV-1 clade C primary isolate) N163T; C164S” belongs 217%.
“97ZA013 Nef-HA, wild type (HIV-1 clade C primary isolate) R17A; R19A; R21A; R22A”: in assay [2], the response (corrected total cell fluorescence) was 7580. For the same substance, the percent of parent in assay [1] (setting [4]) was 16%.
As for “97ZA013 Nef-HA, wild type (HIV-1 clade C primary isolate) R192F; R193H”, in assay [1] (setting [3]), the percent of parent turned out to be 188%.
Still for that read-out and setting: with “97ZA013 Nef-HA, wild type (HIV-1 clade C primary isolate) S152D; E153K” the figure was 42%.
